This note sets out measurements from patent US20230257467A1 (DRAGONFLY THERAPEUTICS, published 2023).

In assay [1] the target is T1, recombinant human EGFR-His (human, UniProt P00533 25-645).
T1 construct: also called epidermal growth factor receptor; ErbB-1; not shown: His tag (EGFR-His)
As to the kind of experiment: SPR, single point mutant scFv constructs. A general note: Surface plasmon resonance follows binding to a sensor surface in real time, without labels.

Assay [2] has as its target T2, recombinant rhesus EGFR-His (rhesus macaque, UniProt P55245 25-645, limits assumed).
T2 construct: also called Rhesus macaque EGFR; not shown: His tag (EGFR-His)
Put plainly: SPR, single point mutant scFv constructs.

Assay [3] deals with T3, EGFR expressed on H2172 human cancer cells (human, UniProt P00533 25-1210).
T3 construct: whole, on cells; also called EGFR-positive H2172 cancer cells; EGFR+ cells
As to the kind of experiment: flow cytometry on EGFR-positive H2172 cells, 4 C for 0.5 h, fluorophore-conjugated anti-human IgG secondary antibody. Here is the method: This example was designed to assess the binding affinity of the EGFR-targeting TriNKETs to EGFR expressed on cell surface. The H2172 human cancer cell line, derived from non-small cell lung carcinoma, was used. […] Cells were analyzed by flow cytometry and fold MFI over secondary-only controls reported.
(A flow cytometer gives signals particle by particle.)

Assay [4] addresses T1, recombinant human EGFR-His. As to the kind of experiment: SPR, Biacore 8K, 37 C, TriNKET captured on anti-hFc IgG chip, EGFR-His injected, N=4. Here is the method: (§1) Kinetics and affinities of EGFR binding constructs for recombinant human and rhesus EGFR were measured by SPR using a Biacore 8K instrument. Samples were captured on the anti-hFc IgG chip and a range of concentrations of human or rhesus recombinant EGFR-His was injected over captured test articles. Experiments were performed at physiological temperature of 37° C. Data were analyzed using Biacore 8K Insight Evaluation software (GE Healthcare).

Assay [5] has as its target T1, recombinant human EGFR-His. Put plainly: SPR, Biacore 8K, 37 C, TriNKET captured on anti-hFc IgG chip, EGFR-His injected, N=4; column head prints KD (nM) but the cells carry E-09. Here is the method:
as §1

In assay [6] the target is T1, recombinant human EGFR-His. Put plainly: SPR, combination mutant scFv constructs.
For assay [7], the target named is T2, recombinant rhesus EGFR-His. As to the kind of experiment: SPR, combination mutant scFv constructs.

Broadly, the Kd is a measure of binding affinity in units of concentration. By koff is commonly meant a measure of how fast the partners let go of each other. In general, kon refers to the second-order rate constant of association. In the case of PANI-L-D92R (scFv), in assay [1], the Kd turned out to be 3.27 nM, the koff is 0.000839 s⁻¹ and the on-rate constant (kon) worked out at 256000 M⁻¹ s⁻¹. In addition, in assay [2], the Kd was 5.09 nM, the koff came to 0.00096 s⁻¹ and the kon worked out at 189000 M⁻¹ s⁻¹.

B1: EGFR-TriNKET-2 (bispecific antibody, human IgG1, kappa)
chain: DIQMTQSPSSLSASVGDRVTITCQASQDISNYLNWYQQKPGKAPKLLIYDASNLETGVPSRFSGSGSGTDFTFTISSLQPEDIATYYCQHFDHLPLAFGCGTKVEIKGGGGSGGGGSGGGGSGGGGSQVQLQESGPGLVKPSETLSLTCTVSGGSVSSGDYYWTWIRQSPGKCLEWIGHIYYSGNTNYNPRLKSRLTISIDTSKTQFSLKLSSVTAADTAIYYCVRDRVTGAFDIWGQGTMVTVSSGSDKTHTCPPCPAPELLGGPSVFLFPPKPKDTLMISRTPEVTCVVVDVSHEDPEVKFNWYVDGVEVHNAKTKPREEQYNSTYRVVSVLTVLHQDWLNGKEYKCKVSNKALPAPIEKTISKAKGQPREPRVYTLPPCRDELTKNQVSLTCLVKGFYPSDIAVEWESNGQPENNYKTTPPVLVSDGSFTLYSKLTVDKSRWQQGNVFSCSVMHEALHNHYTQKSLSLSPG
heavy: EVQLVESGGGLVKPGGSLRLSCAASGFTFSSYSMNWVRQAPGKGLEWVSSISSSSSYIYYADSVKGRFTISRDNAKNSLYLQMNSLRAEDTAVYYCARGAPIGAAAGWFDPWGQGTLVTVSSASTKGPSVFPLAPSSKSTSGGTAALGCLVKDYFPEPVTVSWNSGALTSGVHTFPAVLQSSGLYSLSSVVTVPSSSLGTQTYICNVNHKPSNTKVDKKVEPKSCDKTHTCPPCPAPELLGGPSVFLFPPKPKDTLMISRTPEVTCVVVDVSHEDPEVKFNWYVDGVEVHNAKTKPREEQYNSTYRVVSVLTVLHQDWLNGKEYKCKVSNKALPAPIEKTISKAKGQPREPQVCTLPPSRDELTENQVSLTCLVKGFYPSDIAVEWESNGQPENNYKTTPPVLDSDGSFFLYSWLTVDKSRWQQGNVFSCSVMHEALHNHYTQKSLSLSPG
light: DIQMTQSPSSVSASVGDRVTITCRASQGISSWLAWYQQKPGKAPKLLIYAASSLQSGVPSRFSGSGSGTDFTLTISSLQPEDFATYYCQQGVSFPRTFGGGTKVEIKRTVAAPSVFIFPPSDEQLKSGTASVVCLLNNFYPREAKVQWKVDNALQSGNSQESVTEQDSKDSTYSLSSTLTLSKADYEKHKVYACEVTHQGLSSPVTKSFNRGEC
notes: F3' format with three polypeptides: EGFR-scFv-2 (VL-VH)-Fc, A49MI-VH-CH1-Fc and A49MI-VL-CL; also called EGFR2
What is called EC50 (read off the curve) is the concentration giving half of the maximal effect. Low values mean higher potency in that assay, high ones lower potency in that assay. Turning to B1, the “EC50 (read off the curve)” value in assay [3] was around 0.5 nM. Besides, in assay [4], the koff came to 0.000988 s⁻¹ and the kon stood at 500000 M⁻¹ s⁻¹. For the same molecule, the Kd in assay [5] came to 1.98 nM.

B2: EGFR-TriNKET-4 (bispecific antibody, human IgG1, kappa)
chain: DIQMTQSPSSLSASVGDRVTITCQASQDISNYLNWYQQKPGKAPKLLIYDASNLETGVPSRFSGSGSGTDFTFTISSLQPEDIATYYCQHFRHLPLAFGCGTKVEIKGGGGSGGGGSGGGGSGGGGSQVQLQESGPGLVKPSETLSLTCTVSGGSVSSGDYYWTWIRQSPGKCLEWIGHIYYSGNTNYNPSLKSRLTISIDTSKTQFSLKLSSVTAADTAIYYCVRDRVTGAFDIWGQGTMVTVSSGSDKTHTCPPCPAPELLGGPSVFLFPPKPKDTLMISRTPEVTCVVVDVSHEDPEVKFNWYVDGVEVHNAKTKPREEQYNSTYRVVSVLTVLHQDWLNGKEYKCKVSNKALPAPIEKTISKAKGQPREPRVYTLPPCRDELTKNQVSLTCLVKGFYPSDIAVEWESNGQPENNYKTTPPVLVSDGSFTLYSKLTVDKSRWQQGNVFSCSVMHEALHNHYTQKSLSLSPG
heavy: EVQLVESGGGLVKPGGSLRLSCAASGFTFSSYSMNWVRQAPGKGLEWVSSISSSSSYIYYADSVKGRFTISRDNAKNSLYLQMNSLRAEDTAVYYCARGAPIGAAAGWFDPWGQGTLVTVSSASTKGPSVFPLAPSSKSTSGGTAALGCLVKDYFPEPVTVSWNSGALTSGVHTFPAVLQSSGLYSLSSVVTVPSSSLGTQTYICNVNHKPSNTKVDKKVEPKSCDKTHTCPPCPAPELLGGPSVFLFPPKPKDTLMISRTPEVTCVVVDVSHEDPEVKFNWYVDGVEVHNAKTKPREEQYNSTYRVVSVLTVLHQDWLNGKEYKCKVSNKALPAPIEKTISKAKGQPREPQVCTLPPSRDELTENQVSLTCLVKGFYPSDIAVEWESNGQPENNYKTTPPVLDSDGSFFLYSWLTVDKSRWQQGNVFSCSVMHEALHNHYTQKSLSLSPG
light: DIQMTQSPSSVSASVGDRVTITCRASQGISSWLAWYQQKPGKAPKLLIYAASSLQSGVPSRFSGSGSGTDFTLTISSLQPEDFATYYCQQGVSFPRTFGGGTKVEIKRTVAAPSVFIFPPSDEQLKSGTASVVCLLNNFYPREAKVQWKVDNALQSGNSQESVTEQDSKDSTYSLSSTLTLSKADYEKHKVYACEVTHQGLSSPVTKSFNRGEC
notes: F3' format with three polypeptides: EGFR-scFv-4 (VL-VH)-Fc, A49MI-VH-CH1-Fc and A49MI-VL-CL; also called EGFR4
Consider B2, for which, in assay [4], the koff is 0.000745 s⁻¹ and the kon turned out to be 316000 M⁻¹ s⁻¹. Besides, in assay [5], the Kd worked out at 2.36 nM.

B3: EGFR-TriNKET-3 (bispecific antibody, human IgG1, kappa)
chain: DIQMTQSPSSLSASVGDRVTITCQASQDISNYLNWYQQKPGKAPKLLIYDASNLETGVPSRFSGSGSGTDFTFTISSLQPEDIATYYCQHFRHLPLAFGCGTKVEIKGGGGSGGGGSGGGGSGGGGSQVQLQESGPGLVKPSETLSLTCTVSGGSVSSGDYYWTWIRQSPGKCLEWIGHIYYSGNTNYNPRLKSRLTISIDTSKTQFSLKLSSVTAADTAIYYCVRDRVTGAFDIWGQGTMVTVSSGSDKTHTCPPCPAPELLGGPSVFLFPPKPKDTLMISRTPEVTCVVVDVSHEDPEVKFNWYVDGVEVHNAKTKPREEQYNSTYRVVSVLTVLHQDWLNGKEYKCKVSNKALPAPIEKTISKAKGQPREPRVYTLPPCRDELTKNQVSLTCLVKGFYPSDIAVEWESNGQPENNYKTTPPVLVSDGSFTLYSKLTVDKSRWQQGNVFSCSVMHEALHNHYTQKSLSLSPG
heavy: EVQLVESGGGLVKPGGSLRLSCAASGFTFSSYSMNWVRQAPGKGLEWVSSISSSSSYIYYADSVKGRFTISRDNAKNSLYLQMNSLRAEDTAVYYCARGAPIGAAAGWFDPWGQGTLVTVSSASTKGPSVFPLAPSSKSTSGGTAALGCLVKDYFPEPVTVSWNSGALTSGVHTFPAVLQSSGLYSLSSVVTVPSSSLGTQTYICNVNHKPSNTKVDKKVEPKSCDKTHTCPPCPAPELLGGPSVFLFPPKPKDTLMISRTPEVTCVVVDVSHEDPEVKFNWYVDGVEVHNAKTKPREEQYNSTYRVVSVLTVLHQDWLNGKEYKCKVSNKALPAPIEKTISKAKGQPREPQVCTLPPSRDELTENQVSLTCLVKGFYPSDIAVEWESNGQPENNYKTTPPVLDSDGSFFLYSWLTVDKSRWQQGNVFSCSVMHEALHNHYTQKSLSLSPG
light: DIQMTQSPSSVSASVGDRVTITCRASQGISSWLAWYQQKPGKAPKLLIYAASSLQSGVPSRFSGSGSGTDFTLTISSLQPEDFATYYCQQGVSFPRTFGGGTKVEIKRTVAAPSVFIFPPSDEQLKSGTASVVCLLNNFYPREAKVQWKVDNALQSGNSQESVTEQDSKDSTYSLSSTLTLSKADYEKHKVYACEVTHQGLSSPVTKSFNRGEC
notes: F3' format with three polypeptides: EGFR-scFv-3 (VL-VH)-Fc, A49MI-VH-CH1-Fc and A49MI-VL-CL; also called EGFR3
Regarding B3, the “EC50 (read off the curve)” value in assay [3] was around 0.9 nM. In assay [4], the off-rate constant (koff) was 0.00093 s⁻¹ and the kon was found to be 295000 M⁻¹ s⁻¹. Besides, in assay [5], the Kd was found to be 3.16 nM.

B4: EGFR-TriNKET-1 (bispecific antibody)
scFv-Fc: DIQMTQSPSSLSASVGDRVTITCQASQDISNYLNWYQQKPGKAPKLLIYDASNLETGVPSRFSGSGSGTDFTFTISSLQPEDIATYFCQHFDHLPLAFGCGTKVEIKGGGGSGGGGSGGGGSGGGGSQVQLQESGPGLVKPSETLSLTCTVSGGSVSSGDYYWTWIRQSPGKCLEWIGHIYYSGNTNYNPSLKSRLTISIDTSKTQFSLKLSSVTAADTAIYYCVRDRVTGAFDIWGQGTMVTVSSGSDKTHTCPPCPAPELLGGPSVFLFPPKPKDTLMISRTPEVTCVVVDVSHEDPEVKFNWYVDGVEVHNAKTKPREEQYNSTYRVVSVLTVLHQDWLNGKEYKCKVSNKALPAPIEKTISKAKGQPREPRVYTLPPCRDELTKNQVSLTCLVKGFYPSDIAVEWESNGQPENNYKTTPPVLVSDGSFTLYSKLTVDKSRWQQGNVFSCSVMHEALHNHYTQKSLSLSPG
heavy: EVQLVESGGGLVKPGGSLRLSCAASGFTFSSYSMNWVRQAPGKGLEWVSSISSSSSYIYYADSVKGRFTISRDNAKNSLYLQMNSLRAEDTAVYYCARGAPIGAAAGWFDPWGQGTLVTVSSASTKGPSVFPLAPSSKSTSGGTAALGCLVKDYFPEPVTVSWNSGALTSGVHTFPAVLQSSGLYSLSSVVTVPSSSLGTQTYICNVNHKPSNTKVDKKVEPKSCDKTHTCPPCPAPELLGGPSVFLFPPKPKDTLMISRTPEVTCVVVDVSHEDPEVKFNWYVDGVEVHNAKTKPREEQYNSTYRVVSVLTVLHQDWLNGKEYKCKVSNKALPAPIEKTISKAKGQPREPQVCTLPPSRDELTENQVSLTCLVKGFYPSDIAVEWESNGQPENNYKTTPPVLDSDGSFFLYSWLTVDKSRWQQGNVFSCSVMHEALHNHYTQKSLSLSPG
light: DIQMTQSPSSVSASVGDRVTITCRASQGISSWLAWYQQKPGKAPKLLIYAASSLQSGVPSRFSGSGSGTDFTLTISSLQPEDFATYYCQQGVSFPRTFGGGTKVEIKRTVAAPSVFIFPPSDEQLKSGTASVVCLLNNFYPREAKVQWKVDNALQSGNSQESVTEQDSKDSTYSLSSTLTLSKADYEKHKVYACEVTHQGLSSPVTKSFNRGEC
notes: also called EGFR1
On to B4, for which, in assay [3], the “EC50 (read off the curve)” value was around 0.3 nM. In assay [4], the koff turned out to be 0.000967 s⁻¹ and the on-rate (kon) amounted to 592000 M⁻¹ s⁻¹.

B5: PANI-H_S62R-L_F87Y-L_D92R (scFv, V domains shown)
VH: QVQLQESGPGLVKPSETLSLTCTVSGGSVSSGDYYWTWIRQSPGKCLEWIGHIYYSGNTNYNPRLKSRLTISIDTSKTQFSLKLSSVTAADTAIYYCVRDRVTGAFDIWGQGTMVTVSS
VL: DIQMTQSPSSLSASVGDRVTITCQASQDISNYLNWYQQKPGKAPKLLIYDASNLETGVPSRFSGSGSGTDFTFTISSLQPEDIATYYCQHFRHLPLAFGCGTKVEIK
notes: also called EGFR-scFv-3
As to B5, in assay [6], the Kd amounted to 3.38 nM, the koff worked out at 0.00099 s⁻¹ and the kon was determined as 293000 M⁻¹ s⁻¹. Besides, in assay [7], the Kd is 5.36 nM, the koff is 0.00112 s⁻¹ and the kon was 209000 M⁻¹ s⁻¹.
